The source of these data is WO2016071355A1 (dated 2016).

The target in experiment [1] is T1, human CD38 peptide-Fc fusion F17 (human, UniProt P0DOX5 223-449 = IgG part). Briefly: SPR, antibody immobilized, peptide-Fc injected at 1000 nM.
Experiment [2] has as its target T2, human CD38 peptide-Fc fusion F3 (human, UniProt P0DOX5 223-449 = IgG part).
T2 construct: doubtful; also called F3 construct
The experiment is described as above.

The target in experiment [3] is T3, human CD38 peptide-Fc fusion F6 (human, UniProt P0DOX5 195-449 = IgG part). The description is as above.
Experiment [4] addresses T4, human CD38 peptide-Fc fusion F12 (human, UniProt P0DOX5 223-449 = IgG part). The description is as above.
The target of experiment [5] is T5, human CD38 peptide-Fc fusion F13 (human, UniProt P0DOX5 223-449 = IgG part). The description is as above.
Experiment [6] has as its target T6, human CD38 peptide-Fc fusion F14 (human, UniProt P0DOX5 223-449 = IgG part). The description is as above.
The target of experiment [7] is T7, human CD38 peptide-Fc fusion F5 (human, UniProt P0DOX5 223-449 = IgG part). The experiment is described as above.
Experiment [8] concerns the target T8, human CD38 peptide-Fc fusion F11 (human, UniProt P0DOX5 223-449 = IgG part). The experiment is described as above.
The target in experiment [9] is T9, human CD38 peptide-Fc fusion F2 (human, UniProt P0DOX5 223-449 = IgG part). The experiment is described as above.
Experiment [10] addresses T10, human CD38 peptide-Fc fusion F20 (human, UniProt P0DOX5 223-449 = IgG part). The experiment is described as above.
Experiment [11] addresses T11, human CD38 peptide-Fc fusion F16 (human, UniProt P0DOX5 223-449 = IgG part). Described as above.
The target of experiment [12] is T12, human CD38 peptide-Fc fusion F18 (human, UniProt P0DOX5 223-449 = IgG part). Described as above.
The target in experiment [13] is T13, human CD38 peptide-Fc fusion F1 (human, UniProt P0DOX5 223-449 = IgG part). Described as above.
Experiment [14] addresses T14, human CD38 peptide-Fc fusion F8 (human, UniProt P0DOX5 223-449 = IgG part). The experiment is described as above.
The target in experiment [15] is T15, human CD38 peptide-Fc fusion F19 (human, UniProt P0DOX5 223-449 = IgG part). The experiment is described as above.
Experiment [16] has as its target T16, human CD38 peptide-Fc fusion F15 (human, UniProt P0DOX5 223-449 = IgG part). The experiment is described as above.
Experiment [17] concerns the target T17, human CD38 peptide-Fc fusion F9 (human, UniProt P0DOX5 223-449 = IgG part). The experiment is described as above.
Experiment [18] has as its target T18, human CD38 peptide-Fc fusion F7 (human, UniProt P0DOX5 223-449 = IgG part). The description is as above.
In experiment [19] the target is T19, human CD38 peptide-Fc fusion F4 (human, UniProt P0DOX5 223-449 = IgG part).
T19 construct: doubtful
The description is as above.

In experiment [20] the target is T20, human CD38 peptide-Fc fusion F10 (human, UniProt P0DOX5 223-449 = IgG part). The experiment is described as above.
Experiment [21] addresses T21, soluble extracellular region of human CD38 fused to a 6-His-tag (human, UniProt P28907 43-300).
T21 construct: also called human CD38 extracellular domain with a poly-histidine tag; human CD38 antigen
Briefly: SPR, equilibrium response, antibody captured on protein G.

In experiment [22] the target is T22, soluble extracellular region of cynomolgus monkey CD38 antigen fused to a 6-His-tag (cynomolgus monkey, UniProt Q5VAN0 45-301).
T22 construct: also called cynomolgus CD38
In words: SPR.

In experiment [23] the target is T1, human CD38 peptide-Fc fusion F17. Briefly: SPR, antibody immobilized, peptide-Fc injected at 15 nM and 200 nM.
The target of experiment [24] is T2, human CD38 peptide-Fc fusion F3. Described as above.
Experiment [25] addresses T4, human CD38 peptide-Fc fusion F12. Described as above.
For experiment [26], the target named is T5, human CD38 peptide-Fc fusion F13. Described as above.
In experiment [27] the target is T6, human CD38 peptide-Fc fusion F14. Described as above.
The target in experiment [28] is T7, human CD38 peptide-Fc fusion F5. Described as above.
Experiment [29] deals with T8, human CD38 peptide-Fc fusion F11. The description is as above.
Experiment [30] has as its target T9, human CD38 peptide-Fc fusion F2. The description is as above.
The target in experiment [31] is T10, human CD38 peptide-Fc fusion F20. The description is as above.
In experiment [32] the target is T11, human CD38 peptide-Fc fusion F16. The description is as above.
Experiment [33] addresses T12, human CD38 peptide-Fc fusion F18. The experiment is described as above.
Experiment [34] concerns the target T13, human CD38 peptide-Fc fusion F1. The experiment is described as above.
For experiment [35], the target named is T14, human CD38 peptide-Fc fusion F8. The experiment is described as above.
In experiment [36] the target is T15, human CD38 peptide-Fc fusion F19. The experiment is described as above.
The target in experiment [37] is T16, human CD38 peptide-Fc fusion F15. Described as above.
Experiment [38] deals with T17, human CD38 peptide-Fc fusion F9. Described as above.
Experiment [39] has as its target T18, human CD38 peptide-Fc fusion F7. Described as above.
Experiment [40] concerns the target T19, human CD38 peptide-Fc fusion F4. Described as above.
The target in experiment [41] is T20, human CD38 peptide-Fc fusion F10. Described as above.
For experiment [42], the target named is T2, human CD38 peptide-Fc fusion F3. In words: SPR.
Experiment [43] concerns the target T3, human CD38 peptide-Fc fusion F6. Briefly: SPR.

B1: human 767 antibody (antibody, V domains shown)
VH: QVQLVESGGGLVQPGGSLRLSCAASGFTFSSYWMSWVRQAPGKGLEWVANIKQDGSEKYYVDSVKGRFTISRDNAKNSLYLQMNSLRAEDTAVYYCAREGRTGYFDYWGQGTLVTVSS
VL: QSVLTQPPSASGTPGQRVTISCSGSTSNIGTNYVYWYQQLPGTAPKLLIYRNDQRPSGVPDRFSGSKSGTSASLAISGLRSEDEADYYCAAWDDSRSGVYAFGTGTKVTVLR
notes: Human IgG1
Regarding B1, the binding result in [1] is listed as “no binding (tested: 1000 nM)”; in [2] it was “binds”; in experiment [3] it was “no binding (tested: 1000 nM)”; in experiment [4] it was “no binding (tested: 1000 nM)”; in [5] it was “no binding (tested: 1000 nM)”; in [6] it was “no binding (tested: 1000 nM)”. The binding result in experiment [7], in [8], in experiment [9], in [10], in experiment [11] and in experiment [12] was “no binding (tested: 1000 nM)” throughout. The binding result in experiment [13], in [14], in experiment [15], in [16], in experiment [17] and in [18] was “no binding (tested: 1000 nM)” in each case. Further, the binding result in [19] and in experiment [20] was “no binding (tested: 1000 nM)” throughout. In addition, the Kd was ~300 nM in experiment [21] and ~1200 nM in experiment [22].

B2: humanized 9G7 antibody (best-fit version) of Example 10 (antibody, human IgG1, kappa, V domains shown)
VH: QVTLKESGPTLVKPTQTLTLTCTFSGLSLSTSGKGVGWIRQPPGKALEWLAHIWWDDDKRYNPALKSRLTITKDTSKNQVVLTMTNMDPVDTATYYCARIELGRSYVMDYWGQGTLVTVSS
VL: DIQMTQSPSSLSASVGDRVTITCQASQDVITSVAWFQQKPGKAPKLLIYSASYRYTGVPSRFSGSGSGTDFTFTISSLQPEDIATYYCQQHYTIPLTFGQGTKLEIKR
notes: also called h9G7
Turning to B2, the binding result in experiment [23], in experiment [24], in experiment [25], in experiment [26], in [27] and in experiment [28] was “no binding (tested: 200 nM)” throughout. The binding result in [29], in experiment [30], in experiment [31], in [32], in experiment [33] and in experiment [34] was “no binding (tested: 200 nM)” throughout. The binding result in [35], in experiment [36], in [37], in experiment [38], in [39] and in experiment [40] was “no binding (tested: 200 nM)” each time. For the same molecule, in experiment [41], the binding result is listed as “no binding (tested: 200 nM)”.

B3: SAR650984 antibody (antibody, human IgG1, kappa, V domains shown)
VH: QVQLVQSGAEVAKPGTSVKLSCKASGYTFTDYWMQWVKQRPGQGLEWIGTIYPGDGDTGYAQKFQGKATLTADKSSKTVYMHLSSLASEDSAVYYCARGDYYGSNSLDYWGQGTSVTVSS
VL: DIVMTQSHLSMSTSLGDPVSITCKASQDVSTVVAWYQQKPGQSPRRLIYSASYRYIGVPDRFTGSGAGTDFTFTISSVQAEDLAVYYCQQHYSPPYTFGGGTKLEIKR
notes: also called humanized SAR650984 antibody
On to B3, for which the binding result is reported as “no binding” in [42] and “binds” in experiment [43].
